Substrate in data set [1]: c1ccc2[nH]ccc2c1
The data set is described as follows: Tryptophan formation from L-serine and indole, kinetics of EcTrpB double mutant. The data set is classed as biochemical, Escherichia coli. The settings on record: other: 37° C., pH 8.0. As for the experimental part:
(§1) Kinetics and UV-Vis Spectroscopy. Data were collected between 550 and 250 nm on a UV1800 Shimadzu spectrophotometer (Shimadzu) using 0.25-20 μM of enzyme in 200 mM potassium phosphate (pH 8.0) in a quartz cuvette. […] PfTrpB activity (kcat) was measured by monitoring tryptophan formation at 290 nm using Δe290=1.89 mM^−1·cm^−1.
(§2) Cloning, expression, and purification of the different orthologs. The genes encoding AfTrpB (UNIPROT ID O28672), TmTrpB (UNIPROT ID P50909) and EcTrpB (UNIPROT ID P0A879) were obtained from IDT and cloned into pET22(b)+ using Gibson Assembly. Protein expression was carried out in E. coli BL21 E. cloni Express cells (Lucigen) by inoculating 10-mL Terrific Broth (with 100 μg/mL ampicillin (TBamp)) with a single colony and incubated over night at 37° C. and 250 rpm. These overnight cultures were used to scale up to 500-mL TBamp expression cultures, which were grown by shaking at 250 rpm and 37° C. for ˜3 h or until an OD600 of 0.8 was reached. Then, after chilling the cultures on ice for 20 min, induction was conducted by the addition of IPTG to a final concentration of 1 mM. Induced cultures were allowed to grow at 250 rpm and 20° C. for another 20 h. After centrifugation, pelleted cells were frozen and stored at −20° C. until further use. […]

Substrate in data set [2]: c1ccc2[nH]ccc2c1
The data set is described as follows: Tryptophan formation from L-serine and indole, kinetics of TmTrpB^T292S. The settings on record: other: 75° C., pH 8.0. The data set is classed as biochemical, Thermotoga maritima. The protocol:
(§3) Kinetics and UV-Vis Spectroscopy. Data were collected between 550 and 250 nm on a UV1800 Shimadzu spectrophotometer (Shimadzu) using 0.25-20 μM of enzyme in 200 mM potassium phosphate (pH 8.0) in a quartz cuvette. Samples were incubated at 75° C. for >3 min to ensure a stable temperature was reached. PfTrpB activity (kcat) was measured by monitoring tryptophan formation at 290 nm using Δe290=1.89 mM^−1·cm^−1.
as §2, with “reached.” for “reached. Then, after chilling the cultures on ice for 20 min, induction was conducted by the addition of IPTG to a final concentration of 1 mM. Induced cultures were allowed to grow at 250 rpm and 20° C. for another 20 h. After centrifugation, pelleted cells were frozen and stored at −20° C. until further use.”
(§4) The next homolog, TmTrpB, was examined. […] The variants without the T292S mutation lacked this probative absorbance peak, but the decrease at 428 nm and concomitant increase at 350 nm are consistent with a similar, though less pronounced activation.

Substrate in data set [3]: c1ccc2[nH]ccc2c1
The data set is described as follows: Tryptophan formation from L-serine and indole, kinetics of TmTrpB^triple. To be noted: other: 75° C., pH 8.0. The data set is classed as biochemical, Thermotoga maritima. As for the experimental part: as §3
as §2, with “reached.” for “reached. Then, after chilling the cultures on ice for 20 min, induction was conducted by the addition of IPTG to a final concentration of 1 mM. Induced cultures were allowed to grow at 250 rpm and 20° C. for another 20 h. After centrifugation, pelleted cells were frozen and stored at −20° C. until further use.”
as §4

Substrate in data set [4]: c1ccc2[nH]ccc2c1
The data set is described as follows: Tryptophan formation from L-serine and indole, kinetics of wild-type TmTrpB. The data set is classed as biochemical, Thermotoga maritima. To be noted: other: 75° C., pH 8.0.

Substrate in data set [5]: c1ccc2[nH]ccc2c1
The data set is described as follows: Tryptophan formation from L-serine and indole, kinetics of TmTrpS complex. The data set is classed as biochemical, Thermotoga maritima. The settings on record: other: 75° C., pH 8.0. The protocol: as §3
as §2, with “mM.” for “mM. Induced cultures were allowed to grow at 250 rpm and 20° C. for another 20 h. After centrifugation, pelleted cells were frozen and stored at −20° C. until further use.”
TmTrpA gene was also obtained from IDT and cloned into pET22(b)+ using Gibson Assembly, but without including the C-terminal His-tag. […] Protein concentrations were determined via the Bradford assay (Bio-Rad).

Substrate in data set [6]: c1ccc2[nH]ccc2c1
The data set is described as follows: Tryptophan formation from L-serine and indole, kinetics of wild-type AfTrpB. The format is biochemical, Archaeoglobus fulgidus. To be noted: other: 60° C., pH 8.0. As for the experimental part:
as §1
as §2, with “reached.” for “reached. Then, after chilling the cultures on ice for 20 min, induction was conducted by the addition of IPTG to a final concentration of 1 mM. Induced cultures were allowed to grow at 250 rpm and 20° C. for another 20 h. After centrifugation, pelleted cells were frozen and stored at −20° C. until further use.”
The three TrpB homologs and their corresponding 0B2 variants were expressed and purified, and then their kinetic properties (kcat and KM of indole) were measured. […] The UV-vis spectra of the enzymes was recorded before and after adding L-serine, relying on the diagnostic spectrum of the PLP cofactor to report the steady state population of the catalytic intermediates.

Substrate in data set [7]: c1ccc2[nH]ccc2c1
The data set is described as follows: Tryptophan formation from L-serine and indole, kinetics of AfTrpB double mutant. The settings on record: other: 60° C., pH 8.0. The format is biochemical, Archaeoglobus fulgidus. As for the experimental part:
as §1, §2

What is called Km is the concentration of substrate that gives half-maximal velocity.

B1: Escherichia coli TrpB variant M149T N171D (Table 6 prints N171T), parent SEQ ID NO: 8, variant SEQ ID NO: 40 (Escherichia coli K-12; M149T/N171D) (protein)
chain: MTTLLNPYFGEFGGMYVPQILMPALRQLEEAFVSAQKDPEFQAQFNDLLKNYAGRPTALTKCQNITAGTNTTLYLKREDLLHGGAHKTNQVLGQALLAKRMGKTEIIAETGAGQHGVASALASALLGLKCRIYMGAKDVERQSPNVFRTRLMGAEVIPVHSGSATLKDACDEALRDWSGSYETAHYMLGTAAGPHPYPTIVREFQRMIGEETKAQILEREGRLPDAVIACVGGGSNAIGMFADFINETNVGLIGVEPGGHGIETGEHGAPLKHGRVGIYFGMKAPMMQTEDGQIEESYSISAGLDFPSVGPQHAYLNSTGRADYVSITDDEALEAFKTLCLHEGIIPALESSHALAHALKMMRENPDKEQLLVVNLSGRGDKDIFTVHDILKARGEILEHHHHHH
With B1, in data set [1], the Km is 18 µM.

B2: Thermotoga maritima TrpB variant TmTrpB^T292S, SEQ ID NO: 26 (Thermotoga maritima MSB8; T292S) (protein)
chain: MKGYFGPYGGQYVPEILMPALEELEAAYEEIMKDESFWKEFNDLLRDYAGRPTPLYFARRLSEKYGARIYLKREDLLHTGAHKINNAIGQVLLAKKMGKTRIIAETGAGQHGVATATAAALFGMECVIYMGEEDTIRQKPNVERMKLLGAKVVPVKSGSRTLKDAINEALRDWITNLQTTYYVIGSVVGPHPYPIIVRNFQKVIGEETKKQILEKEGRLPDYIVACVGGGSNAAGIFYPFIDSGVKLIGVEAGGEGLETGKHAASLLKGKIGYLHGSKTFVLQDDWGQVQVSHSVSAGLDYSGVGPEHAYWRETGKVLYDAVTDEEALDAFIELSRLEGIIPALESSHALAYLKKINIKGKVVVVNLSGRGDKDLESVLNHPYVRERIRLEHHHHHH
Consider B2, for which the Km in data set [2] amounted to 25 µM.

B3: Thermotoga maritima TrpB variant TmTrpB^triple (P19G, I69V, T292S), SEQ ID NO: 34 (Thermotoga maritima MSB8; I69V/P19G/T292S) (protein)
chain: MKGYFGPYGGQYVPEILMGALEELEAAYEEIMKDESFWKEFNDLLRDYAGRPTPLYFARRLSEKYGARVYLKREDLLHTGAHKINNAIGQVLLAKKMGKTRIIAETGAGQHGVATATAAALFGMECVIYMGEEDTIRQKPNVERMKLLGAKVVPVKSGSRTLKDAINEALRDWITNLQTTYYVIGSVVGPHPYPIIVRNFQKVIGEETKKQILEKEGRLPDYIVACVGGGSNAAGIFYPFIDSGVKLIGVEAGGEGLETGKHAASLLKGKIGYLHGSKTFVLQDDWGQVQVSHSVSAGLDYSGVGPEHAYWRETGKVLYDAVTDEEALDAFIELSRLEGIIPALESSHALAYLKKINIKGKVVVVNLSGRGDKDLESVLNHPYVRERIRLEHHHHHH
Regarding B3, in data set [3], the Km turned out to be 26 µM.

B4: Thermotoga maritima tryptophan synthase beta-subunit TmTrpB, wild type, SEQ ID NO: 6 (Thermotoga maritima MSB8) (protein)
chain: MKGYFGPYGGQYVPEILMPALEELEAAYEEIMKDESFWKEFNDLLRDYAGRPTPLYFARRLSEKYGARIYLKREDLLHTGAHKINNAIGQVLLAKKMGKTRIIAETGAGQHGVATATAAALFGMECVIYMGEEDTIRQKPNVERMKLLGAKVVPVKSGSRTLKDAINEALRDWITNLQTTYYVIGSVVGPHPYPIIVRNFQKVIGEETKKQILEKEGRLPDYIVACVGGGSNAAGIFYPFIDSGVKLIGVEAGGEGLETGKHAASLLKGKIGYLHGSKTFVLQDDWGQVQVTHSVSAGLDYSGVGPEHAYWRETGKVLYDAVTDEEALDAFIELSRLEGIIPALESSHALAYLKKINIKGKVVVVNLSGRGDKDLESVLNHPYVRERIRLEHHHHHH
Regarding B4, the Km in data set [4] turned out to be 33 µM.

B5: Thermotoga maritima tryptophan synthase complex TmTrpS (TmTrpA + TmTrpB) (Thermotoga maritima MSB8) (protein)
chain: MKGYFGPYGGQYVPEILMPALEELEAAYEEIMKDESFWKEFNDLLRDYAGRPTPLYFARRLSEKYGARIYLKREDLLHTGAHKINNAIGQVLLAKKMGKTRIIAETGAGQHGVATATAAALFGMECVIYMGEEDTIRQKPNVERMKLLGAKVVPVKSGSRTLKDAINEALRDWITNLQTTYYVIGSVVGPHPYPIIVRNFQKVIGEETKKQILEKEGRLPDYIVACVGGGSNAAGIFYPFIDSGVKLIGVEAGGEGLETGKHAASLLKGKIGYLHGSKTFVLQDDWGQVQVTHSVSAGLDYSGVGPEHAYWRETGKVLYDAVTDEEALDAFIELSRLEGIIPALESSHALAYLKKINIKGKVVVVNLSGRGDKDLESVLNHPYVRERIRLEHHHHHH
For B5, in data set [5], the Km was found to be 44 µM.

B6: Archaeoglobus fulgidus tryptophan synthase beta-subunit AfTrpB, wild type, SEQ ID NO: 4 (Archaeoglobus fulgidus DSM 4304) (protein)
chain: MRCWLENLSGGRKMKFGEFGGRFVPEVLIPPLEELEKAYDRFKDDEEFKARLEYYLKSYAGRPTPLYFAENLSRELGVKIYLKREDLLHGGAHKINNTIGQALLAKFMGKKRVIAETGAGQHGVATAMAAALLGLEAEIYMGAEDYERQKMNVFRMELLGAKVTAVESGSRTLKDAINEALRDWVESFEHTHYLIGSVVGPHPFPTIVRDFQAVIGKEARRQIIEAEGGMPDAIIACVGGGSNAMGIFHPFLNDDVRLIGVEAGGEGIESGRHSASLTAGSKGVLHGMLSYFLQDEEGMMLDTHSVSAGLDYPGVGPEHAYLKETGRCEYVTVNDEEALRAFKTLSKLEGIIPALESAHAIAYAMKMAEEMQRDDVLVVNLSGRGDKDMDIVRRRLALEHHHHHH
Regarding B6, the Km in data set [6] was 12 µM.

B7: Archaeoglobus fulgidus TrpB variant M156T N178D (Table 6 prints N178T), SEQ ID NO: 24 (Archaeoglobus fulgidus DSM 4304; M156T/N178D) (protein)
chain: MRCWLENLSGGRKMKFGEFGGRFVPEVLIPPLEELEKAYDRFKDDEEFKARLEYYLKSYAGRPTPLYFAENLSRELGVKIYLKREDLLHGGAHKINNTIGQALLAKFMGKKRVIAETGAGQHGVATAMAAALLGLEAEIYMGAEDYERQKMNVFRTELLGAKVTAVESGSRTLKDAIDEALRDWVESFEHTHYLIGSVVGPHPFPTIVRDFQAVIGKEARRQIIEAEGGMPDAIIACVGGGSNAMGIFHPFLNDDVRLIGVEAGGEGIESGRHSASLTAGSKGVLHGMLSYFLQDEEGMMLDTHSVSAGLDYPGVGPEHAYLKETGRCEYVTVNDEEALRAFKTLSKLEGIIPALESAHAIAYAMKMAEEMQRDDVLVVNLSGRGDKDMDIVRRRLALEHHHHHH
Take B7: the Km in data set [7] is 11 µM.

(Values after patent publication US12534748B2, “Engineered beta-subunit of tryptophan synthase for production of non-canonical amino acids” (California Institute of Technology, priority 2015, dated 2026).)
